Measured values: patent US20160185837A1, “GIP AND GLP-1 RECEPTOR DUAL-AGONISTS FOR THE TREATMENT OF DIABETES” (Medimmune Limited, priority 2013, published 2016)
One block for each substance: values may come before it.

Key:
Assay in all cases: cell-based or functional assay
[1] = target: cynomolgus monkey GLP-1 receptor (cynomolgus monkey) (UniProt F8V479)
[2] = target: cynomolgus monkey glucagon receptor (cynomolgus monkey)
[3] = target: T1, human GIP receptor (human) (UniProt P48546)
T1 sequence (looked up): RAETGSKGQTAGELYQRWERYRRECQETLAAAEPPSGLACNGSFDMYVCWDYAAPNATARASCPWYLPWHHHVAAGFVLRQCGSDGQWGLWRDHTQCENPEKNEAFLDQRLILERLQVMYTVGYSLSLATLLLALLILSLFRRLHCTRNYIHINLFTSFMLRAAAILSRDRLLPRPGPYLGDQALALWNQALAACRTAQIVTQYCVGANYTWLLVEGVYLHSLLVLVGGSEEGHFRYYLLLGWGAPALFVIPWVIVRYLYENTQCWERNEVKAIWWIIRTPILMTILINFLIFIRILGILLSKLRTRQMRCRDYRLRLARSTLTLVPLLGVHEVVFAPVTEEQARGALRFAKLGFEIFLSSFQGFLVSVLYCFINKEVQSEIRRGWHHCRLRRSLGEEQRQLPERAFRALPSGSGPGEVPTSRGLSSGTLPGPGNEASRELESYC

[4] = target: mouse GLP-1 receptor (mouse) (UniProt O35659)
Chain of mouse GLP-1 receptor (mouse) (O35659 22-463): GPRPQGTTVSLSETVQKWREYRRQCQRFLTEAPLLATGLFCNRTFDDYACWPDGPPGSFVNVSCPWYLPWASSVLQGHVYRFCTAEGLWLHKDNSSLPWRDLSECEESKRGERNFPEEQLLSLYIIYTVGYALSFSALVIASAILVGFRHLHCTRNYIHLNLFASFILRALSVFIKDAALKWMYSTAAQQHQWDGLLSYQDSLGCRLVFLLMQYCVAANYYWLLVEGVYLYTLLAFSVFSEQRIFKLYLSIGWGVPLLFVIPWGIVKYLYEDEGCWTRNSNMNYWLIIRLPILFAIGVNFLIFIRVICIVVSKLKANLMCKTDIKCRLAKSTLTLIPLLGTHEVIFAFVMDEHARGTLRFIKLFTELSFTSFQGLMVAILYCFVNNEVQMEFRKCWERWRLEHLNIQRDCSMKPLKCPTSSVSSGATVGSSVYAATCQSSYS

rat GLP-1 receptor (rat) = rat GLP-1 receptor (rat) (UniProt P32301)
Chain of rat GLP-1 receptor (rat) (P32301 22-463): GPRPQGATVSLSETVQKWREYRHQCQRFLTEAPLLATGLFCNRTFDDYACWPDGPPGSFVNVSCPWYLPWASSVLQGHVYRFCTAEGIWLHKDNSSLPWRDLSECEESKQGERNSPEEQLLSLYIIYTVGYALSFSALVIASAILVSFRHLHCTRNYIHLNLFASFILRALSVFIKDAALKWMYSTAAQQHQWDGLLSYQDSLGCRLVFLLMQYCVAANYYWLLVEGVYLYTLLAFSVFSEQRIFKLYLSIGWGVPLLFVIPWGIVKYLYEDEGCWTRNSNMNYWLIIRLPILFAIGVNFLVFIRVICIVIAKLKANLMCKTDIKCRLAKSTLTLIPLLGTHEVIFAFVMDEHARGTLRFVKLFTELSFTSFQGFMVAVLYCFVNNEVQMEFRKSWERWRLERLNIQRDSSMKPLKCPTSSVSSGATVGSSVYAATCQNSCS

Chain of cynomolgus monkey GLP-1 receptor (cynomolgus monkey) (F8V479 entry or part of it): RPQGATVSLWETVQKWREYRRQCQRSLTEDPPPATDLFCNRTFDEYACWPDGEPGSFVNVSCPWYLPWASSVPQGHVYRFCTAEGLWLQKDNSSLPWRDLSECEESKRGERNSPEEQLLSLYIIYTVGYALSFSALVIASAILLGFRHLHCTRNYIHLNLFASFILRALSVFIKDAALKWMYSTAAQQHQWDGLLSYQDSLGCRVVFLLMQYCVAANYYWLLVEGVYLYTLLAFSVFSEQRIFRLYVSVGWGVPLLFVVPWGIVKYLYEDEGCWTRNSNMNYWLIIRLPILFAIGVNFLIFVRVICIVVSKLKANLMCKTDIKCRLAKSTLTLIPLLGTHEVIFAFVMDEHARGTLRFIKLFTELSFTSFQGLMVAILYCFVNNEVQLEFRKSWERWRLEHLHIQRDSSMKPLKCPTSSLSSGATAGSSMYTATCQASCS

cAMP EC50, 4.2% cyno serum albumin [1]: 0.025 nM | cAMP EC50, 4.2% cyno serum albumin [2]: > 1000 nM
Substance: liraglutide (peptide)

cAMP EC50 [3]: 0.0047 nM
Substance: human GIP (peptide)

cAMP EC50 [4]: 1.8 nM | cAMP EC50 (rat GLP-1 receptor (rat)): 0.54 nM
Substance: glucagon (from UniProt P01275 53-81) (peptide)
